The values that follow come from article PMC8184817, “Transmission of light signals from the light-oxygen-voltage core via the hydrophobic region of the β-sheet surface in aureochrome-1” (Scientific Reports, 2021).

B1: Photozipper (PZ), N-terminally truncated aureochrome-1 of Vaucheria frigida, wild type [Vaucheria frigida] / itself (parent)
chain: GSISSELTEAQKVERRERNREHAKRSRVRKKFLLESLQQSVNELNHENNSLKESIREHLGPRGDSLIAQSSPEADTLLTDNPSKANRILEDPDYSLVKALQMAQQNFVITDASLPDNPIVYASRGFLTLTGYSLDQILGRNCRFLQGPETDPRAVDKIRNAITKGVDTSVCLLNYRQDGTTFWNLFFVAGLRDSKGNIVNYVGVQSKVSEDYAKLLVNEQNIEYKGVRTSNMLRRK

This assay covers variants of B1. In words: DLS. Particulars: with itself.

On to chain 1 L89A L96A L100A, for which the hydrodynamic size (D (dark) state) was 3.05 nm and the hydrodynamic size (L (light) state) was found to be 3.86 nm.

Take chain 1 L100A: the hydrodynamic size (D (dark) state) was determined as 3.18 nm and the hydrodynamic size (L (light) state) turned out to be 3.88 nm.
